According to patent publication US10821189B2, “CD38 ligand-drug conjugates for targeted cancer therapy” (THE METHODIST HOSPITAL SYSTEM, priority 2015, dated 2020):

Columns and labels:
[1] = DNase I digestion, release of free DOX; type: physicochemical
[2] = test system: MM cells (RPMI8226); assay: Intracellular DOX delivery by confocal microscopy, MM cells; type: cell-based, Human; details: RPMI8226, 2 h treatment, equal molar DOX
Method: (§1) CD38+ MM and CD38− non-MM cells were incubated with free DOX (0.5 μmol/L final concentration) or ApDC (final equivalent concentration of aptamer was 0.1 μmol/L and DOX—0.5 μmol/L) for 1 hour. After washing, cells were resuspended with fresh medium, cultured for 2 hours, and then examined under a 40× objective (Olympus FV 1000 confocal microscope). DOX fluorescence was excited with a 5 mW, 488 nm Ar+ laser.

[3] = test system: control cells (HDLM2); assay: Intracellular DOX delivery by confocal microscopy, control cells; type: cell-based; details: HDLM2, 2 h treatment, equal molar DOX
Method: as §1

[4] = test system: orthotopic MM tumors (RPMI8226GL); assay: Orthotopic MM xenograft mouse model; type: in vivo, NOD/SCID IL2rg−/− mice; details: 0.5 mg/kg Dox, every other day, 13 treatments, observed up to 60 days
Method: 0.5×10^6 RPMI8226 GL cells were inoculated bilaterally into tibiae of 8- to 10-week-old NOD/SCID IL2rg−/− mice. Engraftment was monitored by weekly whole-body bioluminescence imaging on Xenogen IVIS imaging system, as previously reported (Wen, J., Feng, Y, Bjorklund, C. C., Wang, M., Orlowski, R. Z., Shi, Z. Z., Liao, B., O'Hare, J., Zu, Y, Schally, A. V., et al. 2011. Luteinizing Hormone-Releasing Hormone (LHRH)-I antagonist cetrorelix inhibits myeloma cell growth in vitro and in vivo. Mol Cancer Ther 10:148-158). Starting with day 6, mice were treated with free DOX (0.5 mg/kg) or an equivalent ApDC amount (6 mice per group) every other day (13 treatments total). Treatments were administered via the tail vein injection. Bioluminescence intensities representative of tumor mass were quantified by Living Image 3.1. Mice were euthanized by CO2 as they became moribund and their survival curves were plotted with SPSS 10 statistical software (SPSS Inc., Chicago, Ill., USA). All experiments were approved by the IACUC of the Houston Methodist Research Institute. Cells isolated from tumor tissues were examined under a fluorescence microscope for GFP expression. […]

[5] = test system: MM cells (MM1S); assay: Cell binding assay of Cy3-labeled aptamers by flow cytometry, CD38+ MM cells; parameters: species or system Human; details: Cy3-labeled aptamer
Source text: (§2) The top-20 enriched aptamer sequences were synthesized to include Cy3 modification and their affinity and specificity analyzed by flow cytometry. Aptamer#1S was derived by truncating Aptamer#1 based on ValFold software structural prediction (VALWAY Technology Center, NEC Soft Ltd., Tokyo, Japan) (Navani, N. K., Mok, W. K., and Yingfu, L. 2009. In vitro selection of protein-binding DNA aptamers as ligands for biosensing applications. Methods Mol Biol 504:399-415).
(§3) For aptamer staining, cells were stained with Cy3-labeled aptamer at 50 nmol/L (for flow cytometry analysis) or 100 nmol/L (for fluorescence microscopy, Olympus America, Melville, N.Y.) for 30 minutes. For 5(6)-Carboxyfluorescein diacetate N-hydroxysuccinimidyl ester (CFSE, Abcam, Cambridge, Mass.) staining, CD38-control cells were pre-stained with 0.5 μmol/L CFSE for 15 minutes according to the manufacturer's specifications and mixed with unlabeled CD38+MM cells, followed by Cy3-labeled aptamer staining for 30 minutes. For antibody staining, cultured cells or mononuclear cells freshly isolated from MM patient bone marrow samples were stained with antibody (BioLegend) as specified for 15 minutes.

[6] = test system: control cells (HDLM2); assay: Cell binding assay of Cy3-labeled aptamers by flow cytometry, CD38-negative control cells
Source text: as §2, §3

[7] = test system: CD38+ (RPMI8226 and NCI-H929) and CD38− (K299 and Jeko1) cell lines; assay: Cell binding in additional CD38+ and CD38− cell lines
Method: as §3

[8] = molecular target: T1, cellular CD38 proteins from MM cells (MM1S) (Homo sapiens, UniProt P28907); assay: Precipitation of cell lysate proteins with biotin-labeled aptamers, western blot with anti-CD38 antibody; type: binding; details: MM1S lysates
T1 construct: cells were lysed in radioimmunoprecipitation assay (RIPA) buffer; endogenous in cells; host or cells: MM1S (CD38+ myeloma cell line), RIPA lysate
T1 sequence (P28907 1-300): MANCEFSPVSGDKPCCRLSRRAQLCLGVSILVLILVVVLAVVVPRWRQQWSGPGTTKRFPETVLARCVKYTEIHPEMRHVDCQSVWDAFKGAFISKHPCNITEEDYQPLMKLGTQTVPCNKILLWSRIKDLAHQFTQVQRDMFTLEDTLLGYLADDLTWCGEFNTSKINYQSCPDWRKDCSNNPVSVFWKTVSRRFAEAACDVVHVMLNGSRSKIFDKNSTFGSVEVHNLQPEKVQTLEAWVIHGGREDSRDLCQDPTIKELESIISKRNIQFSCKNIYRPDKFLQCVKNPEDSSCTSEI
Method: Immunoprecipitation with biotin-labeled aptamers was performed as previously reported (Shi, F., Cheng, Y. F., Wang, X. L., and Edge, A. S. 2010. Beta-catenin up-regulates Atohl expression in neural progenitor cells by interaction with an Atohl 3′ enhancer. J Biol Chem 285:392-400). In brief, cells were lysed in radioimmunoprecipitation assay (RIPA) buffer supplemented with Halt protease and phosphatase inhibitor cocktail (Thermo Fisher Scientific). Biotin-labeled aptamers were incubated with lysates for 2 hours at 4° C. in SELEX binding buffer supplemented with Halt protease and phosphatase inhibitor cocktail. Aptamer-bound proteins were collected with streptavidin agarose resin (Thermo Fisher Scientific) following 1 hour incubation at 4° C. Precipitated proteins were washed 5 times with SELEX washing buffer supplemented with Halt protease and phosphatase inhibitor cocktail, boiled in sample buffer, and supernatants were analyzed by western blotting using an anti-CD38 antibody (Cell Signaling Technology, Danvers, Mass.). […]

[9] = test system: cultured MM cells (MM1S); assay: Fluorescence microscopy of a cell mixture stained with Cy3-labeled aptamer, MM cells; type: cell-based, Human
Method: as §3

[10] = test system: CD38 negative control cells (HDLM2); assay: Fluorescence microscopy of a cell mixture stained with Cy3-labeled aptamer, control cells; type: cell-based; details: control cells pre-stained in green
Method: as §3

[11] = Aptamer biostability in human serum, gel electrophoresis; type: in vitro ADME; details: human serum at 37° C.
Method: (§4) In vitro biostability of Aptamer#1S was evaluated as previously described (49). In brief, the aptamer was incubated with human serum (Atlanta Biologicals) for 24 hours, and samples were collected at different times using phenol-chloroform extraction. The amount of undigested aptamer was visualized on a 5% agarose gel. In vivo experiments were done in accordance with the institutional guidelines for the use of laboratory animals. To determine the in vivo biostability of Aptamer#1S, 2×10^6 RPMI8226GL and K299GL cells were inoculated subcutaneously into 8- to 10-week-old NOD/SCID IL2rg−/− mice (Jackson Laboratory, Bar Harbor, Me.). Tumor growth was monitored by weekly whole-body bioluminescence imaging using Xenogen IVIS imaging system (PerkinElmer, Waltham, Mass.). Once tumors formed, 5 ng Cy5.5-labeled APTAMER#1S dissolved in PBS was injected via the tail vein and its signal was monitored on the IVIS system.

[12] = test system: xenograft tumors of MM (RPMI8226GL); assay: Whole body fluorescent imaging of Cy5.5-labeled aptamer, MM tumor; type: in vivo, NOD/SCID IL2rg−/− mice
Method: as §4

[13] = test system: xenograft tumors of lymphoma (K299GL); assay: Whole body fluorescent imaging of Cy5.5-labeled aptamer, control tumor; type: in vivo, NOD/SCID IL2rg−/− mice; details: control tumor in the same mouse
Method: as §4

[14] = DOX loading capacity by quenching of DOX fluorescence; type: physicochemical; details: components alone, FIG. 3C
Method: DOX was purchased from Thermo Fisher Scientific. Since DOX preferentially binds to double-stranded 5′-GC-3′ or 5′-CG-3′ repeats (Meng, L., Yang, L., Zhao, X., Zhang, L., Zhu, H., Liu, C., and Tan, W. 2012. Targeted delivery of chemotherapy agents using a liver cancer-specific aptamer. PLoS One 7:e33434), CG repeats were added to the 5′ end of Aptamer#1S to make the modified Aptamer#1S/CG-Cargo sequence. To determine the optimal molar ratio of aptamer to DOX, Apamer#1S/CG-Cargo sequence was heated at 95° C. for 5 minutes, cooled immediately on ice for 15 minutes, and then incubated with a fixed concentration of DOX (final concentration of DOX was 0.5 μmol/L) at various aptamer/DOX ratios ranging from 1:100 to 1:0.5. After 1 hour, the fluorescence (λEx=[…], λEm=[…]) was measured with a Synergy4 analyzer (BioTek, Winooski, Vt.). The minimal ratio at which the fluorescence of DOX was quenched to the maximal extent was determined as the optimal molar ratio (1:5 of aptamer to DOX) (29).

| Molecule | fluorescence change after DNase treatment [1] | intracellular DOX delivery into MM cells [2] | intracellular DOX delivery into control cells [3] | survival of mice bearing orthotopic MM tumors [4] | binding to MM cells (MM1S) [5] | binding to control cells (HDLM2) [6] | affinity and specificity in additional MM and control cells [7] | precipitation of cellular CD38 protein [8] | targeting of MM cells in cell mixture ([9]; Cy3-labeled aptamer) | internalization into MM cells ([9]; intracellular signals) | reaction with control cells in cell mixture [10] | time stable in human serum [11] [h] | accumulation in MM tumor ([12]; Cy5.5-labeled, systemic administration) | duration of specific imaging signals ([12]; post systemic administration) | accumulation in control tumor [13] | drug loading capacity [14] |
| --- | --- | --- | --- | --- | --- | --- | --- | --- | --- | --- | --- | --- | --- | --- | --- | --- |
| COc1cccc2c1C(=O)c1c(O)c3c(c(O)c1C2=O)C[C@@](O)(C(=O)CO)C[C@@H]3O[C@H]1C[C@H](N)[C@H](O)[C@H](C)O1 [free DOX, doxorubicin] | no change | non-specific intracellular drug accumulation | non-specific intracellular drug accumulation | no effect on mouse survival | – | – | – | – | – | – | – | – | – | – | – | – |
| Aptamer#1S: truncated 61-mer of Aptamer#1 inheriting the intact stem-loop structure, SEQ ID NO: 2 (nucleic acid, DNA, backbone and methylation of C not given here; further chemistry not fully specified) DNA: TCCAGAGTGACGCAGCAGCCAACGTGCTTTCTACCTTATTTTCCGTCACTCTCACTCTGGA | – | – | – | – | specifically targeted MM cells | did not react to CD38-negative control cells | further confirmed | specifically reacted to and immunoprecipitated cellular CD38 proteins | selectively targeted MM cells | internalized into the MM cells | did not react to control cells | ≥ 24 | selectively accumulated in MM tumor | up to 12 h | not in control tumor | very limited drug loading capacity |
